Measured values published in patent US20100041096.

Experiments:
His-BARD1 1-320 = His-BARD1 1-320 (UniProt Q99728)
His-BARD1 14-189 = His-BARD1 14-189 (UniProt Q99728)
Chain of His-BARD1 14-189 (Q99728 14-189): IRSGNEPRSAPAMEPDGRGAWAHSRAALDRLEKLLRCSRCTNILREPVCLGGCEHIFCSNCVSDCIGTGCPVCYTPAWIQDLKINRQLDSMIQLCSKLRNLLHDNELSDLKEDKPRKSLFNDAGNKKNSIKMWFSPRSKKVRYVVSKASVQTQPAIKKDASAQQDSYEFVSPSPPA

Chain of His-BARD1 1-320 (Q99728 1-320): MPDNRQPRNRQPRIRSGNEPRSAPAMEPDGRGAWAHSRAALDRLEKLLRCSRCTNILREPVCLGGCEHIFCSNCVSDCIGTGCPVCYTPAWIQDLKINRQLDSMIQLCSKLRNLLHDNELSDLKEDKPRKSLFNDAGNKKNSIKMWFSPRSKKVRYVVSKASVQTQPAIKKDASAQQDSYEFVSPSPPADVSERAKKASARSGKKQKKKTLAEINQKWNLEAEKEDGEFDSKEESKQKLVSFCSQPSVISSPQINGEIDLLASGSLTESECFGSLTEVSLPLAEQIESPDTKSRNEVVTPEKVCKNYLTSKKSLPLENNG

Substance	in vitro kinase assay ([gamma-32P]ATP, autoradiography) (His-BARD1 1-320)	in vitro kinase assay ([gamma-32P]ATP, autoradiography) (His-BARD1 14-189)
HA-CDK1-cyclin B1	both His-BARD^14-180 and HA-BARD1^1-320 were phosphorylated in vitro with CDK2-cyclin E1 and CDK1-cyclinc B1	both His-BARD^14-180 and HA-BARD1^1-320 were phosphorylated in vitro with CDK2-cyclin E1 and CDK1-cyclinc B1
CDK2-cyclin E1	both His-BARD^14-180 and HA-BARD1^1-320 were phosphorylated in vitro with CDK2-cyclin E1 and CDK1-cyclinc B1	both His-BARD^14-180 and HA-BARD1^1-320 were phosphorylated in vitro with CDK2-cyclin E1 and CDK1-cyclinc B1
